According to patent publication US20210275586A1:

Biological target: CD20 antigen on CD20 positive Jeko-1 cells (human) (UniProt P11836)
Assay: flow cytometry on CD20+ Jeko-1 cells, secondary staining with anti-Biotin APC

Sequence of UniProt P11836 (P11836 whole entry): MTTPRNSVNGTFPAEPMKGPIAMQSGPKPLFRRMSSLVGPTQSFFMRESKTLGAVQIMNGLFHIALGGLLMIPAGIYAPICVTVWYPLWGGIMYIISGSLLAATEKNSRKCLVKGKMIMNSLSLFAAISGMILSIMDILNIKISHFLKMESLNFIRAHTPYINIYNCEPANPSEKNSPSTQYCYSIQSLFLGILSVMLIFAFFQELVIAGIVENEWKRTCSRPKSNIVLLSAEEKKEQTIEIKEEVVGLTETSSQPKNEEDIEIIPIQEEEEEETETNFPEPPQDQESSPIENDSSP

In the case of “biotin-crosslinker conjugated anti-CD20 FAb (Rtx Fab MS2)”, the lowest concentration at which binding was detected is reported as 0.1 µg/mL.
